From PMC12881857, “The MabZIP5–MaMYB69 module cooperates with MaERF55 to modulate banana fruit ripening via cell wall degradation”

Assays:
GST-MaMYB69 [1] = target: T1, GST-MaMYB69 (banana, UniProt A0A804IQI7 1-348); assay: competition; 50-fold excess mutant competitor vs N3; Chemiluminescent EMSA Kit (Beyotime); buffer, salt, pH and temperature not stated; settings: protein: recombinant; tags: GST (N-term, pGEX-4T-1); blunt
T1 sequence: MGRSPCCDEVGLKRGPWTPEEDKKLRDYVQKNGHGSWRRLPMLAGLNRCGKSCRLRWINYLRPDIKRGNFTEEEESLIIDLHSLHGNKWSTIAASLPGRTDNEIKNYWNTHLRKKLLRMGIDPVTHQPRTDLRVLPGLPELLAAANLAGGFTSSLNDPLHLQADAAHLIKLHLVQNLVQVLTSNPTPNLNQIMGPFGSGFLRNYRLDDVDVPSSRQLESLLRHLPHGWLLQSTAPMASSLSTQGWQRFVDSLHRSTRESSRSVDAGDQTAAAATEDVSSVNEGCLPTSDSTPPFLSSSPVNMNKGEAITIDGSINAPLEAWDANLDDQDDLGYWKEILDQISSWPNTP

GST-MaMYB69 [2] = target: T1, GST-MaMYB69; assay: competition; 50-fold excess mutant competitor vs N5; Chemiluminescent EMSA Kit (Beyotime); buffer, salt, pH and temperature not stated; settings: protein: recombinant; tags: GST (N-term, pGEX-4T-1); blunt
GST-MaMYB69 [3] = target: T1, GST-MaMYB69; assay: EMSA; Chemiluminescent EMSA Kit (Beyotime); buffer, salt, pH and temperature not stated; settings: protein: recombinant, tags: GST (N-term, pGEX-4T-1), blunt
GST-MaMYB69 [4] = target: T1, GST-MaMYB69; assay: competition; 50-fold excess mutant competitor vs N7; Chemiluminescent EMSA Kit (Beyotime); buffer, salt, pH and temperature not stated; settings: protein: recombinant; tags: GST (N-term, pGEX-4T-1); blunt
GST-MaMYB69 [5] = target: T1, GST-MaMYB69; assay: competition; 50-fold excess mutant competitor vs N9; Chemiluminescent EMSA Kit (Beyotime); buffer, salt, pH and temperature not stated; settings: protein: recombinant; tags: GST (N-term, pGEX-4T-1); blunt
GST-MaMYB69 [6] = target: T1, GST-MaMYB69; assay: competition; 50-fold excess mutant competitor vs N1; Chemiluminescent EMSA Kit (Beyotime); buffer, salt, pH and temperature not stated; settings: protein: recombinant; tags: GST (N-term, pGEX-4T-1); blunt

B1: MaPL1 mutant probe (dsDNA)
DNA 1: TCCTGCATCTTGGACGAGAAAAAAGTACCCAAAGAGGACG
DNA 2: CGTCCTCTTTGGGTACTTTTTTCTCGTCCAAGATGCAGGA
binding result (GST-MaMYB69 [1]): no binding

B2: MaGAL mutant probe (dsDNA)
DNA 1: GTAGGGAGTTTTTTTTGCTTGTGTGTGAAAAAAAGATAAA
DNA 2: TTTATCTTTTTTTCACACACAAGCAAAAAAAACTCCCTAC
binding result (GST-MaMYB69 [2]): no binding

B3: MaPL1 promoter probe (dsDNA)
DNA 1: TCCTGCATCTTGGACGAGTTTGGTGTACCCAAAGAGGACG
DNA 2: CGTCCTCTTTGGGTACACCAAACTCGTCCAAGATGCAGGA
binding result (GST-MaMYB69 [3]; label: biotin): binds

B4: MaACO1 promoter probe (dsDNA)
DNA 1: ATTGCTTTCTTGTGGCCACCAACCGGAGAAAGGGAGTCTA
DNA 2: TAGACTCCCTTTCTCCGGTTGGTGGCCACAAGAAAGCAAT
binding result (GST-MaMYB69 [3]): binds

B5: MaPG3 mutant probe (dsDNA)
DNA 1: AGGCATCCAACAACTTTCTCCTTTTTTCTTGCTTGCATAC
DNA 2: GTATGCAAGCAAGAAAAAAGGAGAAAGTTGTTGGATGCCT
binding result (GST-MaMYB69 [4]): no binding

B6: MaMYB69 promoter probe (dsDNA)
DNA 1: AGGTGCCATGCCGCACACCTAAACCTCTTCTGCCCTTTTG
DNA 2: CAAAAGGGCAGAAGAGGTTTAGGTGTGCGGCATGGCACCT
binding result (GST-MaMYB69 [3]; label: biotin): binds

B7: MaPG3 promoter probe (dsDNA)
DNA 1: AGGCATCCAACAACTTTCTCCACCAACCTTGCTTGCATAC
DNA 2: GTATGCAAGCAAGGTTGGTGGAGAAAGTTGTTGGATGCCT
binding result (GST-MaMYB69 [3]; label: biotin): binds

B8: MaGAL promoter probe (dsDNA)
DNA 1: GTAGGGAGACCAAATTGCTTGTGTGTGTTTGGTAGATAAA
DNA 2: TTTATCTACCAAACACACACAAGCAATTTGGTCTCCCTAC
binding result (GST-MaMYB69 [3]; label: biotin): binds

B9: MaMYB69 mutant probe (dsDNA)
DNA 1: AGGTGCCATGCCGCACTTTTTTAAAAAATCTGCCCTTTTG
DNA 2: CAAAAGGGCAGATTTTTTAAAAAAGTGCGGCATGGCACCT
binding result (GST-MaMYB69 [5]): no binding

B10: MaPE promoter probe (dsDNA)
DNA 1: GTGTCGATGGTGAAGTGTTTGGAGAAGTAGGAGCGGCAGC
DNA 2: GCTGCCGCTCCTACTTCTCCAAACACTTCACCATCGACAC
binding result (GST-MaMYB69 [3]; label: biotin): binds

B11: MaPE mutant probe (dsDNA)
DNA 1: GTGTCAAAAAAGAAGTGTTTGGAGAAGTAGGAGCGGCAGC
DNA 2: GCTGCCGCTCCTACTTCTCCAAACACTTCTTTTTTGACAC
binding result (GST-MaMYB69 [6]): no binding
